In the supplement of paper PMC6757056:
± gives the standard deviation of the averaged measurements.

B1: library; a variant is named by its letters at N, in order (parent)
chain: GCUGUCACCGGUGUAUUACCCUAGUGGUCGACCGGUCUGAUGAGUCUNNNNNNAGACGAAACAGC

Tests used:
[1] = variants of: B1; assay: FACS-Seq fitted mean relative fluorescence mCherry/BFP without ligand (log10 relative fluorescence); ligand: hypoxanthine (xanthine aptamer); higher = higher reporter protein expression; conditions: HEK293T, ligand present: no
How it was run: (§1)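 The ribozyme switch sat in an mCherry reporter, delivered by lentivirus into HEK293T libraries along with an EF1α-BFP marker. Enriched cells were incubated 48 h with or without ligand, sorted into 6 bins by mCherry/BFP, and bin genomic DNA was PCR-amplified, barcoded and MiSeq-sequenced. Fluorescence equals the fitted normal mean of the bin counts after normalization. Those log10(mCherry/BFP) means were scaled to five spiked-in control ribozymes.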

[2] = variants of: B1; assay: normalized RNA/DNA level with ligand (relative to sTRSVctl = 100) (log10 (% of sTRSVctl)); ligand: hypoxanthine (xanthine aptamer); higher = less ribozyme self-cleavage, higher mRNA level; conditions: ligand concentration (+) RNA-Seq: 5 mM, HEK293T, reporter: mCherry (pCS4076), ligand present: yes
How it was run: (§2)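 HEK293T cells were transfected with library plasmids carrying ribozyme switches linked to an mCherry reporter, or an eGFP reporter in some ligand experiments, at 4 µg per well of a 6-well plate, with any ligand added 1 h beforehand. After 72 h, total RNA was extracted with EDTA, reverse-transcribed, amplified, barcoded and sequenced. RNA level was defined as RNA reads over DNA reads, normalized to a spiked-in non-cleaving sequence or to the top-ranked sequences. That value was multiplied by 100 and converted to log10, the top set was 25 sequences, and only sequences with ≥100 DNA reads were retained.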

[3] = variants of: B1; assay: normalized RNA/DNA level without ligand (relative to sTRSVctl = 100) (log10 (% of sTRSVctl)); ligand: hypoxanthine (xanthine aptamer); higher = less ribozyme self-cleavage, higher mRNA level; conditions: HEK293T, reporter: mCherry (pCS4076), ligand present: no
How it was run: as §2

[4] = variants of: B1; assay: FACS-Seq fitted mean relative fluorescence mCherry/BFP with ligand (log10 relative fluorescence); ligand: hypoxanthine (xanthine aptamer); ligand concentration (+) FACS-Seq: 5 mM; higher = higher reporter protein expression; conditions: HEK293T, ligand present: yes
How it was run: as §1

Variant	FACS-Seq fitted mean (log10) [1]	normalized RNA/DNA level with ligand (log10) [2]	normalized RNA/DNA level without ligand (log10) [3]	FACS-Seq fitted mean (log10) [4]
GCUGUCACCGGUGUAUUACCCUAGUGGUCGACCGGUCUGAUGAGUCUGGUGUGAGACGAAACAGC	-0.123 ± 0.13	1.783 ± 0.013	1.29 ± 0.051	0.24 ± 0.004
GCUGUCACCGGUGUAUUACCCUAGUGGUCGACCGGUCUGAUGAGUCUGGUGUAAGACGAAACAGC	0.31 ± 0.061	1.91 ± 0.027	1.765 ± 0.0096	0.381 ± 0.023
GCUGUCACCGGUGUAUUACCCUAGUGGUCGACCGGUCUGAUGAGUCUAGUUAGAGACGAAACAGC	0.335 ± 0.052	1.8 ± 0.054	1.44 ± 0.078	0.569 ± 0.019
GCUGUCACCGGUGUAUUACCCUAGUGGUCGACCGGUCUGAUGAGUCUAGUUAAAGACGAAACAGC	0.799 ± 0.015	1.92 ± 0.04	1.76 ± 0.032	0.802 ± 0.094
GCUGUCACCGGUGUAUUACCCUAGUGGUCGACCGGUCUGAUGAGUCUAGUUACAGACGAAACAGC	0.497 ± 0.083	1.89 ± 0.011	1.775 ± 0.016	0.655 ± 0.14
GCUGUCACCGGUGUAUUACCCUAGUGGUCGACCGGUCUGAUGAGUCUAGUGGCAGACGAAACAGC	-0.495 ± 0.045	1.98 ± 0.033	1.83 ± 0.023	0.0818 ± 0.018
GCUGUCACCGGUGUAUUACCCUAGUGGUCGACCGGUCUGAUGAGUCUAGUGGAAGACGAAACAGC	0.318 ± 0.0063	1.9085 ± 0.001	1.62 ± 0.047	0.468 ± 0.084
GCUGUCACCGGUGUAUUACCCUAGUGGUCGACCGGUCUGAUGAGUCUAGUUCAAGACGAAACAGC	0.179 ± 0.0096	1.91 ± 0.034	1.802 ± 0.0084	0.4165 ± 0.0023
GCUGUCACCGGUGUAUUACCCUAGUGGUCGACCGGUCUGAUGAGUCUUGUGUGAGACGAAACAGC	0.266 ± 0.078	1.93 ± 0.058	1.676 ± 0.0071	0.333 ± 0.086
GCUGUCACCGGUGUAUUACCCUAGUGGUCGACCGGUCUGAUGAGUCUGGUGGCAGACGAAACAGC	0.217 ± 0.017	1.89 ± 0.039	1.57 ± 0.025	0.392 ± 0.007
GCUGUCACCGGUGUAUUACCCUAGUGGUCGACCGGUCUGAUGAGUCUGGUGGAAGACGAAACAGC	0.261 ± 0.029	1.951 ± 0.0027	1.71 ± 0.026	0.43 ± 0.028
GCUGUCACCGGUGUAUUACCCUAGUGGUCGACCGGUCUGAUGAGUCUGGUUAGAGACGAAACAGC	0.17 ± 0.041	1.726 ± 0.017	1.383 ± 0.0095	0.458 ± 0.03
GCUGUCACCGGUGUAUUACCCUAGUGGUCGACCGGUCUGAUGAGUCUGGUUACAGACGAAACAGC	0.247 ± 0.029	1.96 ± 0.064	1.8 ± 0.066	0.276 ± 0.0034
GCUGUCACCGGUGUAUUACCCUAGUGGUCGACCGGUCUGAUGAGUCUAGUGUGAGACGAAACAGC	0.0689 ± 0.056	1.8 ± 0.038	1.32 ± 0.038	0.489 ± 0.033
GCUGUCACCGGUGUAUUACCCUAGUGGUCGACCGGUCUGAUGAGUCUAGUGUAAGACGAAACAGC	-0.349 ± 0.012	1.9 ± 0.044	1.71 ± 0.035	-0.0909 ± 0.009
GCUGUCACCGGUGUAUUACCCUAGUGGUCGACCGGUCUGAUGAGUCUGGUUGCAGACGAAACAGC	-0.0647 ± 0.067	1.92 ± 0.037	1.52 ± 0.035	0.345 ± 0.043
GCUGUCACCGGUGUAUUACCCUAGUGGUCGACCGGUCUGAUGAGUCUUGUGGAAGACGAAACAGC	-0.645 ± 0.11	1.91 ± 0.06	1.52 ± 0.12	-0.186 ± 0.061
GCUGUCACCGGUGUAUUACCCUAGUGGUCGACCGGUCUGAUGAGUCUCGUGGAAGACGAAACAGC	0.123 ± 0.011	1.96 ± 0.02	1.729 ± 0.0031	0.396 ± 0.057
GCUGUCACCGGUGUAUUACCCUAGUGGUCGACCGGUCUGAUGAGUCUCGUGGGAGACGAAACAGC	0.0862 ± 0.026	1.85 ± 0.022	1.3 ± 0.078	0.505 ± 0.047
GCUGUCACCGGUGUAUUACCCUAGUGGUCGACCGGUCUGAUGAGUCUUGUUAUAGACGAAACAGC	-0.225 ± 0.19	1.89 ± 0.0069	1.817 ± 0.0095	-0.287 ± 0.069
GCUGUCACCGGUGUAUUACCCUAGUGGUCGACCGGUCUGAUGAGUCUCGUUAAAGACGAAACAGC	0.0819 ± 0.044	1.89 ± 0.019	1.62 ± 0.049	0.118 ± 0.02
